This note sets out measurements from the supplement of paper PMC11780869.

The data set deals with Bacillus subtilis. Briefly: cleaved RNA product abundance (RNA/gDNA barcode ratio) relative to median wild-type variant (ratio to wild type); higher = more accumulation of the downstream cleavage product. As to conditions: cleavage site: cggR-gapA (positions -7 to +36 mutated). Put shortly:
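Truncated aprE or tetM reporter mRNAs with barcoded RNase Y cleavage-site windows, mutagenized from oligos at a 9% error rate, sat in the B. subtilis chromosome. Cells grew in LB at 37°C from OD600 0.0003 to 0.3. Gel-selected cleaved RNA was reverse transcribed and its barcodes sequenced with those from genomic DNA, collapsing by UMI. Cleaved product abundance equals the RNA:gDNA barcode ratio per construct over the median construct with the unmutated site.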

Where [1] appears, read: experiment (reporter, strain, medium): exp 2b: truncated aprE reporter, strain BJT200.
The mark [2] stands for this setting: experiment (reporter, strain, medium): exp 4a: truncated aprE reporter, strain BJT201 with 2% xylose (RNase J1 expressed).
Setting [3] is: experiment (reporter, strain, medium): exp 6: tetM reporter, strain 168.

Consider “ACAGACGAAGGAGCCGCAAAGAAGTTATTAACGGATGAATAATCCCTCAATATAAATATCTCTCACTTATTTAAA”, for which the “cleaved RNA product abundance” value under setting [1] is 0.133, the “cleaved RNA product abundance” value under setting [2] worked out at 0.177 and the “cleaved RNA product abundance” value under setting [3] worked out at 0.195. For “ACAGACGAAGGAGCCGCAAAGAAGTTATTAACGGATGAATAATCCCTCAATATAAATCTCTCTCACTTATTTAAA”, the “cleaved RNA product abundance” value under setting [1] was 0.108. Consider “ACAGACGAAGGAGCCGCAAAGAAGTTATTAACGGATGAATAATCCCTCAATATAAATGTCTCTCACTTATTTAAA”, for which the “cleaved RNA product abundance” value under setting [2] is 0.0543. Still for that read-out and setting: for “ACAGACGAAGGAGCCGCAAAGAAGTTATTAACGGATGAATAATCCCTCAATATACATATCTCTCACTTATTTAAA” the value was 0.231. As for “ACAGACGAAGGAGCCGCAAAGAAGTTATTAACGGATGAATAATCCCTCAATATAGATATCTCTCACTTATTTAAA”, the “cleaved RNA product abundance” value under setting [2] was 0.158. For the sequence “ACAGACGAAGGAGCCGCAAAGAAGTTATTAACGGATGAATAATCCCTCAATATATATATCTCTCACTTATTTAAA”, the “cleaved RNA product abundance” value runs as follows: under setting [1], 0.158; under setting [2], 0.152. With “ACAGACGAAGGAGCCGCAAAGAAGTTATTAACGGATGAATAATCCCTCAATATTAATATCTCTCACTTATTTAAA”, the “cleaved RNA product abundance” value amounted to 0.0877 under setting [1] and 0.0699 under setting [2]. Take “ACAGACGAAGGAGCCGCAAAGAAGTTATTAACGGATGAATAATCCCTCAATCTAAATATCTCTCACTTATTTAAA”: the “cleaved RNA product abundance” value under setting [2] was 0.102.

Turning to “ACAGACGAAGGAGCCGCAAAGAAGTTATTAACGGATGAATAATCCCTCATTATAAATATCTCTCACTTATTTAAA”, the “cleaved RNA product abundance” value under setting [1] is 0.128 and the “cleaved RNA product abundance” value under setting [2] stood at 0.141. “ACAGACGAAGGAGCCGCAAAGAAGTTATTAACGGATGAATAATCCCTCCATATAAATATCTCTCACTTATTTAAA”: the “cleaved RNA product abundance” value under setting [2] came to 0.129. Take “ACAGACGAAGGAGCCGCAAAGAAGTTATTAACGGATGAATAATCCCTCTATATAAATATCTCTCACTTATTTAAA”: the “cleaved RNA product abundance” value under setting [2] is 0.133.

On to “ACAGACGAAGGAGCCGCAAAGAAGTTATTAACGGATGAATAATCCCTGAATATAAATATCTCTCACTTATTTAAA”, for which the “cleaved RNA product abundance” value under setting [2] was determined as 0.107. “ACAGACGAAGGAGCCGCAAAGAAGTTATTAACGGATGAATAATCCCTTAATATAAATATCTCTCACTTATTTAAA”: the “cleaved RNA product abundance” value under setting [1] stood at 0.98 and the “cleaved RNA product abundance” value under setting [2] came to 0.671.

Regarding “ACAGACGAAGGAGCCGCAAAGAAGTTATTAACGGATGAATAATCCTTCAATATAAATATCTCTCACTTATTTAAA”, the “cleaved RNA product abundance” value under setting [2] turned out to be 0.223. With “ACAGACGAAGGAGCCGCAAAGAAGTTATTAACGGATGAATAATCTCTCAATATAAATATCTCTCACTTATTTAAA”, the “cleaved RNA product abundance” value reads like this: under setting [1], 0.0813; under setting [2], 0.183. With “ACAGACGAAGGAGCCGCAAAGAAGTTATTAACGGATGAATAATTCCTCAATATAAATATCTCTCACTTATTTAAA”, under setting [2], the “cleaved RNA product abundance” value is 0.152.

With “ACAGACGAAGGAGCCGCAAAGAAGTTATTAACGGATGAATACTCCCTCAATATAAATATCTCTCACTTATTTAAA”, the “cleaved RNA product abundance” value under setting [2] turned out to be 0.133.

Turning to “ACAGACGAAGGAGCCGCAAAGAAGTTATTAACGGATGAATAGTCCCTCAATATAAATATCTCTCACTTATTTAAA”, the “cleaved RNA product abundance” value under setting [2] is 0.174.

Take “ACAGACGAAGGAGCCGCAAAGAAGTTATTAACGGATGAATATTCCCTCAATATAAATATCTCTCACTTATTTAAA”: the “cleaved RNA product abundance” value under setting [2] was 0.138. As for “ACAGACGAAGGAGCCGCAAAGAAGTTATTAACGGATGAATTATCCCTCAATATAAATATCTCTCACTTATTTAAA”, the “cleaved RNA product abundance” value is 0.12 under setting [1] and 0.179 under setting [2].

With “ACAGACGAAGGAGCCGCAAAGAAGTTATTAACGGATGGATAATCCCTCAATATAAATATCTCTCACTTATTTAAA”, the “cleaved RNA product abundance” value under setting [2] came out at 0.152. As for “ACAGACGAAGGAGCCGCAAAGAAGTTATTAACGGATGTATAATCCCTCAATATAAATATCTCTCACTTATTTAAA”, the “cleaved RNA product abundance” value is, setting by setting: under setting [1], 0.124; under setting [2], 0.147. For “ACAGACGAAGGAGCCGCAAAGAAGTTATTAACGGATTAATAATCCCTCAATATAAATATCTCTCACTTATTTAAA”, in that order: 0.121 and 0.141. With “ACAGACGAAGGAGCCGCAAAGAAGTTATTAACGGCTGAATAATCCCTCAATATAAATATCTCTCACTTATTTAAA”, the “cleaved RNA product abundance” value is, setting by setting: under setting [1], 0.0646; under setting [2], 0.0788.

As to “ACAGACGAAGGAGCCGCAAAGAAGTTATTAACGGTTGAATAATCCCTCAATATAAATATCTCTCACTTATTTAAA”, the “cleaved RNA product abundance” value under setting [1] was found to be 0.0654 and the “cleaved RNA product abundance” value under setting [2] is 0.113.

Turning to “ACAGACGAAGGAGCCGCAAAGAAGTTATTAACGTATGAATAATCCCTCAATATAAATATCTCTCACTTATTTAAA”, the “cleaved RNA product abundance” value under setting [1] was 0.098 and the “cleaved RNA product abundance” value under setting [2] was determined as 0.0853.

On to “ACAGACGAAGGAGCCGCAAAGAAGTTATTAACTGATGAATAATCCCTCAATATAAATATCTCTCACTTATTTAAA”, for which the “cleaved RNA product abundance” value by setting is: under setting [1], 0.0892; under setting [2], 0.118. With “ACAGACGAAGGAGCCGCAAAGAAGTTATTAAGAAATGAATAATCCCTCAATATAAATATCTCTCACTTATTTAAA”, the “cleaved RNA product abundance” value is, setting by setting: under setting [1], 0.0992; under setting [2], 0.1. For “ACAGACGAAGGAGCCGCAAAGAAGTTATTAAGACATGAATAATCCCTCAATATAAATATCTCTCACTTATTTAAA”, the “cleaved RNA product abundance” value under setting [1] stood at 0.111 and the “cleaved RNA product abundance” value under setting [2] stood at 0.132.

Consider “ACAGACGAAGGAGCCGCAAAGAAGTTATTAAGAGAAGAATAAACCCTCAATATAAATATCTCTCACTTATTTAAA”, for which, under setting [2], the “cleaved RNA product abundance” value was 0.0499.

Take “ACAGACGAAGGAGCCGCAAAGAAGTTATTAAGAGAAGAATAATCCCTCAATATAAATATCTCTCACTTATTTAAA”: the “cleaved RNA product abundance” value under setting [1] was found to be 0.0791, the “cleaved RNA product abundance” value under setting [2] was 0.101 and the “cleaved RNA product abundance” value under setting [3] came out at 0.107.

Take “ACAGACGAAGGAGCCGCAAAGAAGTTATTAAGAGACGAATAATCCCTCAATATAAATATCTCTCACTTATTTAAA”: the “cleaved RNA product abundance” value is, setting by setting: under setting [1], 0.0781; under setting [2], 0.0728. As for “ACAGACGAAGGAGCCGCAAAGAAGTTATTAAGAGAGGAATAATCCCTCAATATAAATATCTCTCACTTATTTAAA”, the “cleaved RNA product abundance” value under setting [2] is 0.199. As to “ACAGACGAAGGAGCCGCAAAGAAGTTATTAAGAGATAAAAAATCCCTCAATATAAATATCTCTCACTTATTTAAA”, the “cleaved RNA product abundance” value under setting [2] came out at 0.139. Consider “ACAGACGAAGGAGCCGCAAAGAAGTTATTAAGAGATAAATAATCCCTCAATATAAATATCTCTCACTTATTTAAA”, for which the “cleaved RNA product abundance” value by setting is: under setting [1], 0.0926; under setting [2], 0.0932. On to “ACAGACGAAGGAGCCGCAAAGAAGTTATTAAGAGATAAATAATTCCTCAATATAAATATCTCTCACTTATTTAAA”, for which, under setting [1], the “cleaved RNA product abundance” value was found to be 0.102. In the case of “ACAGACGAAGGAGCCGCAAAGAAGTTATTAAGAGATCAATAATCCCTCAATATAAATATCTCTCACTTATTTAAA”, the “cleaved RNA product abundance” value is 0.0924 under setting [1] and 0.0785 under setting [2]. Consider “ACAGACGAAGGAGCCGCAAAGAAGTTATTAAGAGATGAAAAATACCTCAATATAAATATCTCTCACTTATTTAAA”, for which, under setting [2], the “cleaved RNA product abundance” value was 0.146. For “ACAGACGAAGGAGCCGCAAAGAAGTTATTAAGAGATGAAAAATCCCTCAATATAAATATCTCTCACTTATTTAAA”, the “cleaved RNA product abundance” value under setting [1] is 0.119 and the “cleaved RNA product abundance” value under setting [2] worked out at 0.18.

Turning to “ACAGACGAAGGAGCCGCAAAGAAGTTATTAAGAGATGAACAATCCCTCAATATAAATATCTCTCACTTATTTAAA”, the “cleaved RNA product abundance” value by setting is: under setting [1], 0.0784; under setting [2], 0.205.

As for “ACAGACGAAGGAGCCGCAAAGAAGTTATTAAGAGATGAATAAACCCTCAATATAAATATCTCTCACTTATTTAAA”, the “cleaved RNA product abundance” value runs as follows: under setting [1], 0.148; under setting [2], 0.0846; under setting [3], 0.115. As for “ACAGACGAAGGAGCCGCAAAGAAGTTATTAAGAGATGAATAACCCCTCAATATAAATATCTCTCACTTATTTAAA”, the “cleaved RNA product abundance” value under setting [2] is 0.147. On to “ACAGACGAAGGAGCCGCAAAGAAGTTATTAAGAGATGAATAAGCCCTCAATATAAATATCTCTCACTTATTTAAA”, for which the “cleaved RNA product abundance” value is, setting by setting: under setting [1], 0.1; under setting [2], 0.0929. On to “ACAGACGAAGGAGCCGCAAAGAAGTTATTAAGAGATGAATAATACCTCAATATAAATATCTCTCACTTATTTAAA”, for which the “cleaved RNA product abundance” value was 0.106 under setting [1] and 0.109 under setting [2]. Regarding “ACAGACGAAGGAGCCGCAAAGAAGTTATTAAGAGATGAATAATACCTCAATATATATATCTCTCACTTATTTAAA”, the “cleaved RNA product abundance” value under setting [2] came out at 0.174. Consider “ACAGACGAAGGAGCCGCAAAGAAGTTATTAAGAGATGAATAATACCTCAATTTAAATATCTCTCACTTATTTAAA”, for which the “cleaved RNA product abundance” value under setting [2] was 0.0323. Regarding “ACAGACGAAGGAGCCGCAAAGAAGTTATTAAGAGATGAATAATCACTCAATATAAATATCTCTCACTTATTTAAA”, the “cleaved RNA product abundance” value by setting is: under setting [1], 0.0955; under setting [2], 0.127. On to “ACAGACGAAGGAGCCGCAAAGAAGTTATTAAGAGATGAATAATCCATCAATATAAATATCTCTCACTTATTTAAA”, for which the “cleaved RNA product abundance” value is, setting by setting: under setting [1], 0.142; under setting [2], 0.19. For “ACAGACGAAGGAGCCGCAAAGAAGTTATTAAGAGATGAATAATCCCACAATATAAATATCTCTCACTTATTTAAA”, in that order: 0.0945 and 0.1.

On to “ACAGACGAAGGAGCCGCAAAGAAGTTATTAAGAGATGAATAATCCCGCAATATAAATATCTCTCACTTATTTAAA”, for which the “cleaved RNA product abundance” value under setting [2] was 0.154.
